Assay results: doi:10.1101/2021.05.30.446358

Target: LH1 αβ-polypeptide pair of Rhodospirillum rubrum (Rhodospirillum rubrum) (UniProt P02947)
Assay: cryo-EM structure

stoichiometry N: 16
Substance: LH1 αβ-polypeptide pair of Rhodospirillum rubrum (from UniProt P02947 1-52; P02950 1-49) (complex)
